{
  "source": "paper PMC7542365",
  "about": "(mBio, 2020)",
  "molecular_target": "A/Anhui/1/2013 H7N9 NA, thrombin-digested (for crystals) (influenza A virus A/Anhui/1/2013 (H7N9))",
  "experiment": "crystal structure",
  "data": [
    {"substance": "A/Anhui/1/2013 H7N9 NA, thrombin-digested (for crystals) (domain or fragment)", "values": [
      {"measurement": "stoichiometry N", "result": 4}
    ]}
  ]
}
